Experimental data from patent publication US12247238B2, “Mogroside biocatalysis methods and products” (The Coca-Cola Company, priority 2019, dated 2025).

How the values were obtained:
Type in all cases: biochemical
[1] = RRK loop library variant screening, mogroside V substrate; conditions: second pass evaluation, 10 mM mogroside V, pH 5.6, 37° C., 72 hours
Procedure: (§1) Single transformant colonies from 3.2.2 were inoculated into 2mL BMGY in 48 well-growth blocks and grown overnight at 30° C., 1000 rpm in a benchtop incubator before dilution of cell culture from each well into 2 mL BMM medium an equivalent well in a fresh growth block, to an OD600 nm of 1.0, and growing the induction growth blocks at 30° C., 1000 rpm in a benchtop incubator for 72 hours. The cells were then harvested (5000 g, 10 minutes) and the supernatant from each well concentrated using a 30 kDa cut-off Amicon Ultra 0.5 mL concentrator column (10 000 g, 5 minutes). Enzymatic assays were setup in fresh growth blocks to a total volume of 500 μL, comprising with 50 mM sodium citrate buffer pH 5.6, 10 mM magnesium chloride, 10 mM mogroside V and 50 μL concentrated supernatant (˜35 μg mL−1 protein). Assays were incubated without shaking at 37° C. for 72 hours. 190 μL of reaction was combined with 10 μL 10 mM internal standard (N-Boc-) and 5 μL analyzed by HPLC.
(§2) Mogroside compounds HPLC separation and quantification was conducted using a Synergi Hydro-RP column (250 mm×4.6 mm or 150 mm×4.6 mm) with an initial flow rate of 1 mL min−1 and a water: acetonitrile gradient as per below, similar to that described by Zhou et al. (WO 2014/150127). Compounds were detected at 210 nm using diode array detector (Agilent Technologies, USA), and calibration curves established using standard curves from 0.1 to 10 mM. 150 mm column retention times in minutes: mog V 9.5, sia 1 10.6, mog IVa 10.5, mog IV 11.3, mog III 12.6, mogl I 13.2. 250 mm column retention times: mog V 12.3, sia 1 13.2, mog IVa 13.5, mog IV 14.1, mog III 15.3, mog II 16.2.
Therefore, variants showing improved function were chosen if they surpassed a yield value >70% by peak area during this first pass evolution.
(§3) 48 variants were selected based on Siamenoside I yields of >70% by peak area for a second pass evaluation. The cell lines were regrown and assayed with both mogroside V and Siamenoside I as substrates, independently.

[2] = RRK loop library variant second pass evaluation, Siamenoside I substrate; conditions: Siamenoside I as substrate
Procedure: as §1, §2, §3

[3] = Example 8 standard mogroside biocatalytic assay, Mog V as substrate; conditions: 37° C., pH 5.6
Procedure: Standard mogroside biocatalytic assays were performed at 37° C. in 500 μL volume 50 mM sodium citrate buffer pH 5.6, 10 mM magnesium chloride, 10 mM substrate (typically mogroside V or Siamenoside I) and 50 μg mL−1 enzyme, and incubated for 24-96 hours. Mogroside glucosidation activity was detected by direct HPLC detection and quantification of mogroside V substrate and mogroside products from filtered reaction supernatant, and quantified by comparison with standard curves based on peak area (see Analytical Methods).
as §2, with “Analytical Method: Mogroside” for “Mogroside”

Molecule	% Peak Area Siamenoside I [1] [% Peak Area]	Reaction Progress [1]	Siamenoside I Substrate Evaluation % Peak Area Siamenoside I Left After 72 hr [2] [% Peak Area]	Reaction progress (% conversion) [3] [%]	% Siamenoside I ([3]; 72 hr) [%]
S3 RRK 5: RRK loop library variant, positions 204/205/208: ESG (protein, UniProt Q2UCU3 19-1005, looked up, variant G204E C205S V208G) Beta-galactosidase A: ASIKHRLNGFTILEHPDPAKRDLLQDIVTWDDKSLFINGERIMLFSGEVHPFRLPVPSLWLDIFHKIRALGFNCVSFYIDWALLEGKPGDYRAEGIFALEPFFDAAKEAGIYLIARPGSYINAEVSGGGFPGWLQRVNGTLRSSDEPFLKATDNYIANAAAAVAKAQITNGGPVILYQPENEYSGESCGGKYPDADYMQYVMDQARKADIVVPFISNDASPSGHNAPGSGTGAVDIYGHDSYPLGFDCANPSVWPEGKLPDNFRTLHLEQSPSTPYSLLEFQAGAFDPWGGPGFEKCYALVNHEFSRVFYRNDLSFGVSTFNLYMTFGGTNWGNLGHPGGYTSYDYGSPITETRNVTREKYSDIKLLANFVKASPSYLTATPRNLTTGVYTDTSDLAVTPLIGDSPGSFFVVRHTDYSSQESTSYKLKLPTSAGNLTIPQLEGTLSLNGRDSKIHVVDYNVSGTNIIYSTAEVFTWKKFDGNKVLVLYGGPKEHHELAIASKSNVTIIEGSDSGIVSTRKGSSVIIGWDVSSTRRIVQVGDLRVFLLDRNSAYNYWVPELPTEGTSPGFSTSKTTASSIIVKAGYLLRGAHLDGADLHLTADFNATTPIEVIGAPTGAKNLFVNGEKASHTVDKNGIWSSEVKYAAPEIKLPGLKDLDWKYLDTLPEIKSSYDDSAWVSADLPKTKNTHRPLDTPTSLYSSDYGFHTGYLIYRGHFVANGKESEFFIRTQGGSAFGSSVWLNETYLGSWTGADYAMDGNSTYKLSQLESGKNYVITVVIDNLGLDENWTVGEETMKNPRGILSYKLSGQDASAITWKLTGNLGGEDYQDKVRGPLNEGGLYAERQGFHQPQPPSESWESGSPLEGLSKPGIGFYTAQFDLDLPKGWDVPLYFNFGNNTQAARAQLYVNGYQYGKFTGNVGPQTSFPVPEGILNYRGTNYVALSLWALESDGAKLGSFELSYTTPVLTGYGNVESPEQPKYEQRKGAY	73	87	69		
S3 RRK 7: RRK loop library variant, positions 204/205/208: DSE (protein, UniProt Q2UCU3 19-1005, looked up, variant G204D C205S V208E) Beta-galactosidase A: ASIKHRLNGFTILEHPDPAKRDLLQDIVTWDDKSLFINGERIMLFSGEVHPFRLPVPSLWLDIFHKIRALGFNCVSFYIDWALLEGKPGDYRAEGIFALEPFFDAAKEAGIYLIARPGSYINAEVSGGGFPGWLQRVNGTLRSSDEPFLKATDNYIANAAAAVAKAQITNGGPVILYQPENEYSGDSCGEKYPDADYMQYVMDQARKADIVVPFISNDASPSGHNAPGSGTGAVDIYGHDSYPLGFDCANPSVWPEGKLPDNFRTLHLEQSPSTPYSLLEFQAGAFDPWGGPGFEKCYALVNHEFSRVFYRNDLSFGVSTFNLYMTFGGTNWGNLGHPGGYTSYDYGSPITETRNVTREKYSDIKLLANFVKASPSYLTATPRNLTTGVYTDTSDLAVTPLIGDSPGSFFVVRHTDYSSQESTSYKLKLPTSAGNLTIPQLEGTLSLNGRDSKIHVVDYNVSGTNIIYSTAEVFTWKKFDGNKVLVLYGGPKEHHELAIASKSNVTIIEGSDSGIVSTRKGSSVIIGWDVSSTRRIVQVGDLRVFLLDRNSAYNYWVPELPTEGTSPGFSTSKTTASSIIVKAGYLLRGAHLDGADLHLTADFNATTPIEVIGAPTGAKNLFVNGEKASHTVDKNGIWSSEVKYAAPEIKLPGLKDLDWKYLDTLPEIKSSYDDSAWVSADLPKTKNTHRPLDTPTSLYSSDYGFHTGYLIYRGHFVANGKESEFFIRTQGGSAFGSSVWLNETYLGSWTGADYAMDGNSTYKLSQLESGKNYVITVVIDNLGLDENWTVGEETMKNPRGILSYKLSGQDASAITWKLTGNLGGEDYQDKVRGPLNEGGLYAERQGFHQPQPPSESWESGSPLEGLSKPGIGFYTAQFDLDLPKGWDVPLYFNFGNNTQAARAQLYVNGYQYGKFTGNVGPQTSFPVPEGILNYRGTNYVALSLWALESDGAKLGSFELSYTTPVLTGYGNVESPEQPKYEQRKGAY	72	85	73		
E142A RRK77: β-galactosidase variant, RRK substitutions ENR with E142A (protein, UniProt Q2UCU3 19-1005, looked up, variant E142A G204E C205N V208R) Beta-galactosidase A: ASIKHRLNGFTILEHPDPAKRDLLQDIVTWDDKSLFINGERIMLFSGEVHPFRLPVPSLWLDIFHKIRALGFNCVSFYIDWALLEGKPGDYRAEGIFALEPFFDAAKEAGIYLIARPGSYINAAVSGGGFPGWLQRVNGTLRSSDEPFLKATDNYIANAAAAVAKAQITNGGPVILYQPENEYSGENCGRKYPDADYMQYVMDQARKADIVVPFISNDASPSGHNAPGSGTGAVDIYGHDSYPLGFDCANPSVWPEGKLPDNFRTLHLEQSPSTPYSLLEFQAGAFDPWGGPGFEKCYALVNHEFSRVFYRNDLSFGVSTFNLYMTFGGTNWGNLGHPGGYTSYDYGSPITETRNVTREKYSDIKLLANFVKASPSYLTATPRNLTTGVYTDTSDLAVTPLIGDSPGSFFVVRHTDYSSQESTSYKLKLPTSAGNLTIPQLEGTLSLNGRDSKIHVVDYNVSGTNIIYSTAEVFTWKKFDGNKVLVLYGGPKEHHELAIASKSNVTIIEGSDSGIVSTRKGSSVIIGWDVSSTRRIVQVGDLRVFLLDRNSAYNYWVPELPTEGTSPGFSTSKTTASSIIVKAGYLLRGAHLDGADLHLTADFNATTPIEVIGAPTGAKNLFVNGEKASHTVDKNGIWSSEVKYAAPEIKLPGLKDLDWKYLDTLPEIKSSYDDSAWVSADLPKTKNTHRPLDTPTSLYSSDYGFHTGYLIYRGHFVANGKESEFFIRTQGGSAFGSSVWLNETYLGSWTGADYAMDGNSTYKLSQLESGKNYVITVVIDNLGLDENWTVGEETMKNPRGILSYKLSGQDASAITWKLTGNLGGEDYQDKVRGPLNEGGLYAERQGFHQPQPPSESWESGSPLEGLSKPGIGFYTAQFDLDLPKGWDVPLYFNFGNNTQAARAQLYVNGYQYGKFTGNVGPQTSFPVPEGILNYRGTNYVALSLWALESDGAKLGSFELSYTTPVLTGYGNVESPEQPKYEQRKGAY				89	76 ± 3.1
